Data reported in paper PMC11196578.

Target: MPXV E5_∆N (Mpox virus, UniProt A0A7H0DN89 323-785)
Test: cryo-EM (2.67 A)
Details: protein: recombinant; tags: SUMO fusion; protease-treated (ULP or TEV); chain copies: 6

Sequence of MPXV E5_∆N (A0A7H0DN89 323-785): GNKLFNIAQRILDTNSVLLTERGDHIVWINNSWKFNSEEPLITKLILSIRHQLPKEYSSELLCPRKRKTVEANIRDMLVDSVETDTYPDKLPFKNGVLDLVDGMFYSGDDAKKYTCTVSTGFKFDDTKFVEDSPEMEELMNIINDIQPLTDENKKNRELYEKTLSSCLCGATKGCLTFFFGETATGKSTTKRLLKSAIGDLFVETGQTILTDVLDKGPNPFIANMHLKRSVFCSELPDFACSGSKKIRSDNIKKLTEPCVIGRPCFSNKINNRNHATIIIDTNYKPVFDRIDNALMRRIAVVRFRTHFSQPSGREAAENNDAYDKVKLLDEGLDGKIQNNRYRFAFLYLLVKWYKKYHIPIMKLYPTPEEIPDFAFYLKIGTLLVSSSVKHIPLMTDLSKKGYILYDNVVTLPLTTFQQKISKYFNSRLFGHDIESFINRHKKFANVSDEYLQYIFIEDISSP

B1: Forked DNA (mixed)
DNA 1: AACGAGTCAAGCGCATCCCGTTTTTTTTTTTTTTT
DNA 2: TTTTTTTTTTTTTTTCGGGATGCGCTTGACTCGTT
binding result: binds
